# Test results published in the supplement of paper PMC12764529.
# ± gives the half width of the 95% confidence interval.
# Experiment: folding stability dG unfold from trypsin proteolysis; higher = more stable
# Method in brief: (§1)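 Sequencing followed digestion of designed mini-proteins with trypsin and chymotrypsin, each at 11 concentrations in threefold dilutions together with a no-protease condition. The mini-proteins were under 80 residues, had no cysteine, sat in a PA-tagged cDNA display construct, and were kept only if AlphaFold2 dimer inter-PAE was above 15. From the counts, Bayesian fitting gave K50, and unfolding free energy was derived against a sequence-predicted unfolded-state K50 and a shared folded-state K50, per protease or combined.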
row,Sequence,folding stability dG unfold [kcal/mol]
1,SAGGSAEVYKVKIKIERVLPNGEKVEEEITIEVEGMSEEELLALARELAAEPGVRIKEIEIEKLPPSAGGSA [r15_550_TrROS_Hall],4.82 ± 0.24
2,SAGGSAGGMTIEEKAEELEEELKKKYPDMEVKVEVDPEKGIVKITITDPKNPGKTTELTFPVEESAGGSAGG [r6_478_JUSTAS],4.2 ± 0.45
3,MKAHVTVVDLEDRYRARIELELPDGRVLVFEFEFDSWEEAIEFIRGLIAALPEDEVEIDHIEFLPPDGDPSS [r1_169_TrMRF],3.92 ± 0.091
4,SAGGSAPSISYTDPNITTITVNPPYITTTRPDGTTTVYKVNNGGDITKLKTTPPVPPAAATDASVASAGGSA [r15_393_JUSTAS],-0.17 ± 0.071
5,MSEEERKKAAEERSKPPPVEIKVEVEVVKNEDGEEYLRVRVTVVDPETGEVIEEREFVVRREDLEELLKALS [r1_415_TrROS_Hall],3.7 ± 0.16
6,SGPIAELVKAHPGVPVEDLAKAIVDALKAQLPKDVPITVDAEVTPDGIKLNVTVEGDTEPFTFPFVVKPGSA [r9_805_TrMRF],0.879 ± 0.024
7,SDRIEIEIWRHPNWWMIKIKVRDDGEPVGTQSFPVDDGMDIEEIADNLLNRNPNYKVEITEIEPMPPPPGSA [r9_364_TrROS],2.86 ± 0.16
8,SAGMKIKVEVKETGETYEIEISEEELKKKLKEKFPEVKEITVVVEDPEDMSEEELREKALKAAEELLKSAGG [r19_298_TrROS_Hall],1.59 ± 0.067
9,SKVKIVKVEYDKETNVVTVTIYDEKTKKKIEIRYTPGKVEIVVEIDGKKLVLKFKTKEEALEAAKKLLKKSA [r9_527_TrROS_Hall],2.72 ± 0.089
10,SAGGSAGGEEEYYEIEIVLPKEKAEEILEELKKKLPEGWEIVSVEVVEVDEDGYVRLRIVVKRTSAGGSAGG [r6_340_TrROS_Hall],5.01 ± 0.53
11,KVEIKVEIEVKYNKETGKKVVKIRITVKEGSKEEAEKLAAELAKELFGPNVKVTVEYDKETDEITVTLVFPS [r1_273_TrROS_Hall],3.57 ± 0.15
12,SAGGSAGGAVDPALVSEETTSTSYYPDGTVVTTTTLKVPGKGTTVTLTTVTPLPPSSPSPSASLSAGGSAGG [r6_758_JUSTAS],1.13 ± 0.043
13,SMTITIVVEAPPEEAKEKAEELEKELKEKLDKLREEAKKKGLSEEEIEEELKIKIKVVVVSKEDLEKLKPSA [r9_961_TrROS_Hall],0.989 ± 0.082
14,SAEYTPVGPNEDAEVWEVPNLGKLFTIDPKDDVVEITEVHFDDGDLSPHPHTVRVDVPEEDRDRLRDLLSAG [r14_245_TrMRF],0.0643 ± 0.06
15,SAGGSEALTKNLPGVKEIKIEVEPTEVALSPELAKLLPNLPGVKFTVPSVKIDIKIEYPGTPDGTLSAGGSA [r2_404_TrMRF],0.133 ± 0.088
16,SAKKPLYLIIVKIGPDGKEIVIVAESEEEARKAAEEELRKLFPDLEIKEIKIIPLEKVKTKEEALELLKSAG [r14_900_TrROS_Hall],2.16 ± 0.066
17,SMMIKVKITITNEKGEEVEIEIVASPEEIEEALRKLLPPGAKVEIEKIEFYPLEELKPGDVIKITVRVKPSA [r9_803_TrROS_Hall],2.85 ± 0.11
18,SAGGSAMRPLELENPNGREITIWYNPGEGHFQVEIERYEPPPNGKKKPQRHTFMVNSPEDLLDFIKSAGGSA [r15_31_TrROS],1.57 ± 0.046
19,SAGGSAGGGMTPEEARALAEAAGYEDVEVTVLSRDPENNVTVVEVTARAPGGGGAASVGTYTAPSAGGSAGG [r6_699_JUSTAS],-0.77 ± 0.21
20,SAGGSAGGSAGGDLVITEVRVEFDPKDGTLRVTARFELPNTGETVEVTLEFEIPYPDGASAGGSAGGSAGGS [r10_296_TrMRF],2.99 ± 0.35
21,SAGGSAPKEGTIWIMIPVRYERDPNGKVKPISAEQIADLFQELGFPIKIDEIFDSPGYIMIRIKVKSAGGSA [r15_225_TrROS],2.5 ± 0.075

row,Sequence,folding stability dG unfold [kcal/mol]
1,SAGGSAGGSKAEVVEEKEIFTFPNGFVIKLTKVKNENGEEFEFIEIVPLPPELTEEELKKLKESAGGSAGGS [r12_775_TrROS_Hall],0.711 ± 0.033
2,SAMVITIHPDIPLEELAELLGFPEIEDATVEPLNEGIVPATFHIPEDPDKVILIDFNPEPDFALVLVLSSAG [r14_713_TrMRF],1.59 ± 0.067
3,SAGGMVRITRDEDGILRVELFVEGTPEEAEEEAARLVRLLEELGFEEVRVEREPFGDGVVVTIEAKASAGGS [r8_113_TrMRF],2.55 ± 0.11
4,SAGGDPDEIKKVIITARIYRPDPDGNIHTATIPIIIEGPLDEVIEKVAKEIEEAFGTKIVEITVEKGSAGGS [r16_511_TrMRF],1.54 ± 0.047
5,SAGGMEVTFPVSPDLSPEEVRARIEAEIRPIAEARGAVDVEVPIVEYRRLPPDSVEFRFKVTVRFPRSAGGS [r8_184_JUSTAS],1.94 ± 0.089
6,SMIIKPGMSLEEVLNKIKELLKKGEKYKITVINKETGKVYEFEIDVKTKKIKVKEVTLENGEVIIKIEKVSA [r9_1059_TrROS_Hall],1.93 ± 0.046
7,SAGGSAGGSAGSPVSNPEGGTITNTETLPDGKTIVNTQTIDPSKPKTTTSTTVLDPNGNAVSAGGSAGGSAG [r3_433_JUSTAS],0.894 ± 0.053
8,SAGGSAGGSKEKKYLVIELKLKVPPGMSPEELAKLLESLPGLKVVEIVEVDEESGTVKIVVELSAGGSAGGS [r12_712_TrROS_Hall],2.02 ± 0.046
9,SAGGSAGGSAGGKVLKIKFSSIEEILEYIKNNDSVTIVVLDENDNPIGTITVEVKPGSLSAGGSAGGSAGGS [r10_193_TrMRF],1.67 ± 0.046
10,SAGGDALKGLPPGAKVKVERVNGKLVVVVEKVEVKPPPKVTLTLPPGWKLTRLELTEDGTLKAELEPSAGGS [r16_103_TrROS_Hall],1.4 ± 0.053
11,SAGGSAAVTITSVPPDGTIRATATNPTNGETVTITFSPETSPEEAVAAIQKELGGPVPVTAVTPAGSAGGSA [r15_544_JUSTAS],0.975 ± 0.033
12,SAGGSAGGSAGPLRPRLYRVRFTNPDGSRREFLVPEGATLEEILKRFNIPESGRVELEPVSAGGSAGGSAGG [r11_340_TrMRF],2.3 ± 0.033
13,SKKPKLKIEIEIPEITNMQPDPDNGKYTMRVPFRIKIEWKDNGKEREVDIPIPMNMTVDDARDQLKDLLKSA [r9_656_TrROS],0.629 ± 0.044
14,SAGGSAGGSAAKIVDINISVRRSPENGYWKIPITIRIKGPNGKEQEIDLTMVFKIPPGQPLFSAGGSAGGSA [r18_95_TrROS],2.83 ± 0.072
15,SAGGSAGGSAGSPIDTLVEEKTFTLPNGEKVIEATLKRPPGEPVHVVTIETKDSVIVELESAGGSAGGSAGG [r17_316_JUSTAS],0.513 ± 0.019
16,SAGGSAGGSAGMVKVKITAPPNASLDAIIKAVKDNGAEIISIERKGNELIIEVEIPEENASAGGSAGGSAGG [r11_672_TrMRF],1.54 ± 0.054
17,SASLVPTEREFELPGGERLRVTTPLDPNSDTPTVTVEKFTEAPDGTVTSTTTTVPPSEVAAVLEALGLRSAG [r14_416_JUSTAS],0.664 ± 0.023
18,SAHTISIRIPPNMKPITAEELKKEPGYEVKDINVYPNEDGNMYFTIEVEPGMPPKKMDEILERIRDRMGSAG [r14_421_TrROS],0.764 ± 0.034
19,SAGGSAGGSAGMTVEEFTIPEVGGRVIRTTVEEPTEDGVVVRRRYLILVNPDGTVERRPESAGGSAGGSAGG [r11_911_JUSTAS],-0.0463 ± 0.17
20,SAGGSAGGSAGKTIYAPYSKIPEVIEELKKKGYEIDSIEKVPNGSYKISFKNKPIEINLGSAGGSAGGSAGG [r17_379_TrMRF],3.24 ± 0.078
21,SAGGMTIEELLKKNPELKELVKKGYVIEITYPDGKKETIKISEEDLKKILDDIKKKTNKPVEIKILPSAGGS [r16_655_TrROS_Hall],1.05 ± 0.081

# Experiment: folding stability dG unfold from chymotrypsin proteolysis; higher = more stable
# Method in brief: as §1
row,Sequence,folding stability dG unfold [kcal/mol]
1,SAGGSAEVYKVKIKIERVLPNGEKVEEEITIEVEGMSEEELLALARELAAEPGVRIKEIEIEKLPPSAGGSA [r15_550_TrROS_Hall],4.54 ± 0.19
2,SAGGSAGGMTIEEKAEELEEELKKKYPDMEVKVEVDPEKGIVKITITDPKNPGKTTELTFPVEESAGGSAGG [r6_478_JUSTAS],2.23 ± 0.19
3,MKAHVTVVDLEDRYRARIELELPDGRVLVFEFEFDSWEEAIEFIRGLIAALPEDEVEIDHIEFLPPDGDPSS [r1_169_TrMRF],4.73 ± 0.051
4,SAGGSAPSISYTDPNITTITVNPPYITTTRPDGTTTVYKVNNGGDITKLKTTPPVPPAAATDASVASAGGSA [r15_393_JUSTAS],0.421 ± 0.13
5,MSEEERKKAAEERSKPPPVEIKVEVEVVKNEDGEEYLRVRVTVVDPETGEVIEEREFVVRREDLEELLKALS [r1_415_TrROS_Hall],3.57 ± 0.15
6,SGPIAELVKAHPGVPVEDLAKAIVDALKAQLPKDVPITVDAEVTPDGIKLNVTVEGDTEPFTFPFVVKPGSA [r9_805_TrMRF],1.34 ± 0.038
7,SDRIEIEIWRHPNWWMIKIKVRDDGEPVGTQSFPVDDGMDIEEIADNLLNRNPNYKVEITEIEPMPPPPGSA [r9_364_TrROS],3.82 ± 0.12
8,SAGMKIKVEVKETGETYEIEISEEELKKKLKEKFPEVKEITVVVEDPEDMSEEELREKALKAAEELLKSAGG [r19_298_TrROS_Hall],2.49 ± 0.051
9,SKVKIVKVEYDKETNVVTVTIYDEKTKKKIEIRYTPGKVEIVVEIDGKKLVLKFKTKEEALEAAKKLLKKSA [r9_527_TrROS_Hall],3.94 ± 0.079
10,SAGGSAGGEEEYYEIEIVLPKEKAEEILEELKKKLPEGWEIVSVEVVEVDEDGYVRLRIVVKRTSAGGSAGG [r6_340_TrROS_Hall],4.21 ± 0.14
11,KVEIKVEIEVKYNKETGKKVVKIRITVKEGSKEEAEKLAAELAKELFGPNVKVTVEYDKETDEITVTLVFPS [r1_273_TrROS_Hall],4.06 ± 0.18
12,SAGGSAGGAVDPALVSEETTSTSYYPDGTVVTTTTLKVPGKGTTVTLTTVTPLPPSSPSPSASLSAGGSAGG [r6_758_JUSTAS],0.437 ± 0.077
13,SMTITIVVEAPPEEAKEKAEELEKELKEKLDKLREEAKKKGLSEEEIEEELKIKIKVVVVSKEDLEKLKPSA [r9_961_TrROS_Hall],-0.317 ± 0.11
14,SAEYTPVGPNEDAEVWEVPNLGKLFTIDPKDDVVEITEVHFDDGDLSPHPHTVRVDVPEEDRDRLRDLLSAG [r14_245_TrMRF],-1.11 ± 0.58
15,SAGGSEALTKNLPGVKEIKIEVEPTEVALSPELAKLLPNLPGVKFTVPSVKIDIKIEYPGTPDGTLSAGGSA [r2_404_TrMRF],-0.659 ± 0.37
16,SAKKPLYLIIVKIGPDGKEIVIVAESEEEARKAAEEELRKLFPDLEIKEIKIIPLEKVKTKEEALELLKSAG [r14_900_TrROS_Hall],1.92 ± 0.07
17,SMMIKVKITITNEKGEEVEIEIVASPEEIEEALRKLLPPGAKVEIEKIEFYPLEELKPGDVIKITVRVKPSA [r9_803_TrROS_Hall],4.47 ± 0.54
18,SAGGSAMRPLELENPNGREITIWYNPGEGHFQVEIERYEPPPNGKKKPQRHTFMVNSPEDLLDFIKSAGGSA [r15_31_TrROS],1.6 ± 0.15
19,SAGGSAGGGMTPEEARALAEAAGYEDVEVTVLSRDPENNVTVVEVTARAPGGGGAASVGTYTAPSAGGSAGG [r6_699_JUSTAS],-0.245 ± 0.27
20,SAGGSAGGSAGGDLVITEVRVEFDPKDGTLRVTARFELPNTGETVEVTLEFEIPYPDGASAGGSAGGSAGGS [r10_296_TrMRF],2.86 ± 0.15
21,SAGGSAPKEGTIWIMIPVRYERDPNGKVKPISAEQIADLFQELGFPIKIDEIFDSPGYIMIRIKVKSAGGSA [r15_225_TrROS],3.204 ± 0.032
